# Tested on: HIS-GST-cERCC1 (ERCC1 central domain) (Homo sapiens)
# Assay: EMSA
substance,measurement,value
"b10 (bubble10, dsDNA with 10 unpaired bases)",Kd,2500 nM

# Source: PMC2034474
